The target of this assay is human protein kinase R (PKR) (human) (UniProt P19525). The experiment in a line: cell-based or functional assay.
Sequence of UniProt P19525 (P19525 2-551 limits assumed): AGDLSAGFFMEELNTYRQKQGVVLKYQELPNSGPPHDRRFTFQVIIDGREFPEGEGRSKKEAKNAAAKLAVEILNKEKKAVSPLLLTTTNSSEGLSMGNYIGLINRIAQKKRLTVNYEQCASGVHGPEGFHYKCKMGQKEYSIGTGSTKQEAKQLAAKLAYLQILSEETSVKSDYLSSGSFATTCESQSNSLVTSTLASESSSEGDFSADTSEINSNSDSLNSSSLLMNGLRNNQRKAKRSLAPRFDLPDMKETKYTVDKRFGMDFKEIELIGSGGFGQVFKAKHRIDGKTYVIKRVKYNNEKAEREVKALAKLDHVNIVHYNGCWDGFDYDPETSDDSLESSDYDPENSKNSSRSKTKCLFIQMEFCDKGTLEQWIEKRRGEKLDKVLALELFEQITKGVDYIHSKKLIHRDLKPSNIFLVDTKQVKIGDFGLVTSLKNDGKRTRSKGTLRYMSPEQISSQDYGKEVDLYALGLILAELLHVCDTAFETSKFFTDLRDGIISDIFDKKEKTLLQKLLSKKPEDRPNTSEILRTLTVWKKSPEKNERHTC

In the case of sheeppox virus 011 (K3 ortholog), the virus titre increase between 5 hpi and 48 hpi in HeLa cells is over 10 fold.

Turning to taterapox virus 037 (K3 ortholog), the virus titre increase between 5 hpi and 48 hpi in HeLa cells was over 10 fold.

(Values after US20210244739A1.)
